From paper PMC2756588

Columns and labels:
Test in all cases: SPOT array
Abp1, P15891 = biological target: T1, Abp1, P15891; details: median of control spots 935
T1 sequence (P15891 535-592, looked up): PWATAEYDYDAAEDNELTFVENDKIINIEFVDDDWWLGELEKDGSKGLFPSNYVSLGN

Bbc1, P47068 = biological target: T2, Bbc1, P47068; details: median of control spots 796
T2 sequence (P47068 1-78, looked up): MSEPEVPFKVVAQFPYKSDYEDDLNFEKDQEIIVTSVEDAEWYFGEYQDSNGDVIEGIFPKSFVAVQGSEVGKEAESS

Bem1-1, P29366 = details: median of control spots 4282
Bem1-2, P29366 = details: median of control spots 4347
Boi1, P38041 = biological target: T3, Boi1, P38041; details: median of control spots 1162
T3 sequence (P38041 1-86, looked up): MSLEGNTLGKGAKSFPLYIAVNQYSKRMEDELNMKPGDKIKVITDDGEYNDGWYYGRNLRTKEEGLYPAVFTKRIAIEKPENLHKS

Boi2, P39969 = biological target: T4, Boi2, P39969; details: median of control spots 1161
T4 sequence (P39969 32-116, looked up): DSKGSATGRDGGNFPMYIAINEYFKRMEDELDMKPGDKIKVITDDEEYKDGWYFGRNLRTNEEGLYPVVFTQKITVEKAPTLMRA

Bud14, P27637 = biological target: T5, Bud14, P27637; details: median of control spots 956
T5 sequence (P27637 247-328, looked up): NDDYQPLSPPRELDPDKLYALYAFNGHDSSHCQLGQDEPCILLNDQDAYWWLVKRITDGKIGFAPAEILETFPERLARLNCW

Bzz1-1, P38822 = biological target: T6, Bzz1-1, P38822; details: median of control spots 4446
T6 sequence (P38822 478-572, looked up): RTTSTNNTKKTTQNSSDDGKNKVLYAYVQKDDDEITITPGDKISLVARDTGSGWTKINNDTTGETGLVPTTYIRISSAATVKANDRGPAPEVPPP

Bzz1-2, P38822 = biological target: T7, Bzz1-2, P38822; details: median of control spots 4538
T7 sequence (P38822 568-633, looked up): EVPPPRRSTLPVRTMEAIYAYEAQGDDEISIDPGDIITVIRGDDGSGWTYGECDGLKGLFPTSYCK

Cdc25, P04821 = biological target: T8, Cdc25, P04821; details: median of control spots 969
T8 sequence (P04821 50-136, looked up): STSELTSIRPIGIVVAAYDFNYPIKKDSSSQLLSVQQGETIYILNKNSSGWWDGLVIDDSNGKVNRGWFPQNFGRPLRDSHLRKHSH

Cyk3, Q07533 = biological target: T9, Cyk3, Q07533; details: median of control spots 1451
T9 sequence (Q07533 1-83, looked up): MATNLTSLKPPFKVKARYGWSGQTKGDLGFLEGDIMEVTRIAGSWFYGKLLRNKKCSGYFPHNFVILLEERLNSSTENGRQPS

Fus1, P11710 = biological target: T10, Fus1, P11710; details: median of control spots 1200
T10 sequence (P11710 432-512, looked up): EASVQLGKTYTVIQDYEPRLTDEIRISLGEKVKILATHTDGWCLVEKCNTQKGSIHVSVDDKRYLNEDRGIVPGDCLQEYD

GST = details: median of control spots 978
Hof1, Q05080 = biological target: T11, Hof1, Q05080; details: median of control spots 4086
T11 sequence (Q05080 590-669, looked up): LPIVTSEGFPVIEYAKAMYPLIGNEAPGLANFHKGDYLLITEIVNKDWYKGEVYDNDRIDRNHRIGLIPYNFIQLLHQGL

Hse1, P38753 = biological target: T12, Hse1, P38753; details: median of control spots 1727
T12 sequence (P38753 208-285, looked up): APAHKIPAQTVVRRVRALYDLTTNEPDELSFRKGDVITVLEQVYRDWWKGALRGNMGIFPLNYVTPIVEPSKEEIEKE

Lsb1, P53281 = biological target: T13, Lsb1, P53281; details: median of control spots 388
T13 sequence (P53281 45-122, looked up): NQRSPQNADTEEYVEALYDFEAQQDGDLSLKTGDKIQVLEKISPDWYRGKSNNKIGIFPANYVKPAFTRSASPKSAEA

Lsb3, P43603 = biological target: T14, Lsb3, P43603; details: median of control spots 406
T14 sequence (P43603 385-451, looked up): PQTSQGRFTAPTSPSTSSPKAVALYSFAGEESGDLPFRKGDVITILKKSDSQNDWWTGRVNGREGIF

Lsb4, P32793 = biological target: T15, Lsb4, P32793; details: median of control spots 397
T15 sequence (P32793 402-468, looked up): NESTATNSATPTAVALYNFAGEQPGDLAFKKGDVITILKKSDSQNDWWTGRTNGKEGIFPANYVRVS

Myo3, P36006 = details: median of control spots 468
Myo5, Q04439 = biological target: T16, Myo5, Q04439; details: median of control spots 471
T16 sequence (Q04439 1072-1160, looked up): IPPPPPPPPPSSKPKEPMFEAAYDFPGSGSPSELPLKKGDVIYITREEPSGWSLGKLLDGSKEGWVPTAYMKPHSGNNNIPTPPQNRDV

Nbp2, Q12163 = biological target: T17, Nbp2, Q12163; details: median of control spots 357
T17 sequence (Q12163 103-180, looked up): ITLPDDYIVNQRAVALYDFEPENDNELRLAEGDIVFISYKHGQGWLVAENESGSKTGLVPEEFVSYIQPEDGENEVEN

Pex13, P80667 = biological target: T18, Pex13, P80667; details: median of control spots 1341
T18 sequence (P80667 295-386, looked up): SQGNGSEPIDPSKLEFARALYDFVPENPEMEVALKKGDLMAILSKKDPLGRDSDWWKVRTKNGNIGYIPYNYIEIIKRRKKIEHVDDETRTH

Pin3, Q06449 = biological target: T19, Pin3, Q06449; details: median of control spots 2171
T19 sequence (Q06449 53-122, looked up): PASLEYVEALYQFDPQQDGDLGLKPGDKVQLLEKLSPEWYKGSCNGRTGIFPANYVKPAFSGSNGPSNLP

Rvs167, P39743 = details: median of control spots 2707
Sho1, P40073 = details: median of control spots 1148
Sla1-2, P32790 = biological target: T20, Sla1-2, P32790; details: median of control spots 712
T20 sequence (P32790 60-140, looked up): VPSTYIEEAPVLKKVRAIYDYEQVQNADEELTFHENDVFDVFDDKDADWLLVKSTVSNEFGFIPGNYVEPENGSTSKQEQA

Sla1-3, P32790 = biological target: T21, Sla1-3, P32790; details: median of control spots 5475
T21 sequence (P32790 344-424, looked up): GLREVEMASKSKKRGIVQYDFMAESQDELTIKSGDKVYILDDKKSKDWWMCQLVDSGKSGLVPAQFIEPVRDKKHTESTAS

Sequence of Bem1-2, P29366 (P29366 139-227): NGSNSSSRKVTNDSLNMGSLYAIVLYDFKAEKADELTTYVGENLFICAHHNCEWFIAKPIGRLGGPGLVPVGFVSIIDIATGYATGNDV
Sequence of Rvs167, P39743 (P39743 419-482): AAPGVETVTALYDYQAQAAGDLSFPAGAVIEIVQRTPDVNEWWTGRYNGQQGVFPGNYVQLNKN
Sequence of Sho1, P40073 (P40073 287-367): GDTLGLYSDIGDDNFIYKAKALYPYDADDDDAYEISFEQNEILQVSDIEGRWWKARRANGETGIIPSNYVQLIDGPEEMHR
Sequence of Bem1-1, P29366 (P29366 55-141): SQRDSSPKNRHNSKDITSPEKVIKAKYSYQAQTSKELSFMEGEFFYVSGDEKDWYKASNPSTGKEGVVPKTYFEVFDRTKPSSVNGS

With QPQRTAPKPPISAPR the SPOT intensity (Abp1, P15891) was 42, the SPOT intensity (Bbc1, P47068) was 55 and the SPOT intensity (Bem1-1, P29366) was 0. For the same binder, the SPOT intensity (Bem1-2, P29366) was 45, the SPOT intensity (Boi1, P38041) was 0 and the SPOT intensity (Boi2, P39969) was 1. For the same binder, the SPOT intensity (Bud14, P27637) was 2, the SPOT intensity (Bzz1-1, P38822) was 2 and the SPOT intensity (Bzz1-2, P38822) was 2. It also gave an SPOT intensity (Cdc25, P04821) of 3, an SPOT intensity (Cyk3, Q07533) of 0 and an SPOT intensity (Fus1, P11710) of 0. For the same binder, the SPOT intensity (GST) was 0, the SPOT intensity (Hof1, Q05080) was 0 and the SPOT intensity (Hse1, P38753) was 0. It also gave an SPOT intensity (Lsb1, P53281) of 3, an SPOT intensity (Lsb3, P43603) of 2 and an SPOT intensity (Lsb4, P32793) of 1. The SPOT intensity (Myo3, P36006) was 294, the SPOT intensity (Myo5, Q04439) was 230 and the SPOT intensity (Nbp2, Q12163) was 276. The SPOT intensity (Pex13, P80667) was 44, the SPOT intensity (Pin3, Q06449) was 7 and the SPOT intensity (Rvs167, P39743) was 0. For the same binder, the SPOT intensity (Sho1, P40073) was 0, the SPOT intensity (Sla1-2, P32790) was 0 and the SPOT intensity (Sla1-3, P32790) was 9.

In the case of STPQTMRQAPKRPDA, the SPOT intensity (Abp1, P15891) is reported as 102, the SPOT intensity (Bbc1, P47068) is reported as 8 and the SPOT intensity (Bem1-1, P29366) is reported as 0. The SPOT intensity (Bem1-2, P29366) was 2, the SPOT intensity (Boi1, P38041) was 0 and the SPOT intensity (Boi2, P39969) was 1. The SPOT intensity (Bud14, P27637) was 0, the SPOT intensity (Bzz1-1, P38822) was 0 and the SPOT intensity (Bzz1-2, P38822) was 2. The SPOT intensity (Cdc25, P04821) was 0, the SPOT intensity (Cyk3, Q07533) was 1 and the SPOT intensity (Fus1, P11710) was 0. For the same binder, the SPOT intensity (GST) was 1, the SPOT intensity (Hof1, Q05080) was 0 and the SPOT intensity (Hse1, P38753) was 0. It also gave an SPOT intensity (Lsb1, P53281) of 24, an SPOT intensity (Lsb3, P43603) of 45 and an SPOT intensity (Lsb4, P32793) of 33. For the same binder, the SPOT intensity (Myo3, P36006) was 47, the SPOT intensity (Myo5, Q04439) was 47 and the SPOT intensity (Nbp2, Q12163) was 53. It also gave an SPOT intensity (Pex13, P80667) of 116, an SPOT intensity (Pin3, Q06449) of 192 and an SPOT intensity (Rvs167, P39743) of 0. It also gave an SPOT intensity (Sho1, P40073) of 4, an SPOT intensity (Sla1-2, P32790) of 2 and an SPOT intensity (Sla1-3, P32790) of 2.

In the case of LEFRAILFIPKRAPF, the SPOT intensity (Abp1, P15891) is reported as 92, the SPOT intensity (Bbc1, P47068) is reported as 22 and the SPOT intensity (Bem1-1, P29366) is reported as 3. It also gave an SPOT intensity (Bem1-2, P29366) of 1, an SPOT intensity (Boi1, P38041) of 10 and an SPOT intensity (Boi2, P39969) of 4. For the same binder, the SPOT intensity (Bud14, P27637) was 13, the SPOT intensity (Bzz1-1, P38822) was 0 and the SPOT intensity (Bzz1-2, P38822) was 0. For the same binder, the SPOT intensity (Cdc25, P04821) was 29, the SPOT intensity (Cyk3, Q07533) was 1 and the SPOT intensity (Fus1, P11710) was 87. For the same binder, the SPOT intensity (GST) was 0, the SPOT intensity (Hof1, Q05080) was 5 and the SPOT intensity (Hse1, P38753) was 6. The SPOT intensity (Lsb1, P53281) was 35, the SPOT intensity (Lsb3, P43603) was 26 and the SPOT intensity (Lsb4, P32793) was 18. The SPOT intensity (Myo3, P36006) was 34, the SPOT intensity (Myo5, Q04439) was 9 and the SPOT intensity (Nbp2, Q12163) was 53. The SPOT intensity (Pex13, P80667) was 59, the SPOT intensity (Pin3, Q06449) was 68 and the SPOT intensity (Rvs167, P39743) was 0. For the same binder, the SPOT intensity (Sho1, P40073) was 103, the SPOT intensity (Sla1-2, P32790) was 6 and the SPOT intensity (Sla1-3, P32790) was 8.

VRTRRRPPPPPIPST showed an SPOT intensity (Abp1, P15891) of 107, an SPOT intensity (Bbc1, P47068) of 115 and an SPOT intensity (Bem1-1, P29366) of 0. The SPOT intensity (Bem1-2, P29366) was 109, the SPOT intensity (Boi1, P38041) was 1 and the SPOT intensity (Boi2, P39969) was 1. For the same binder, the SPOT intensity (Bud14, P27637) was 8, the SPOT intensity (Bzz1-1, P38822) was 1720 and the SPOT intensity (Bzz1-2, P38822) was 4030. The SPOT intensity (Cdc25, P04821) was 0, the SPOT intensity (Cyk3, Q07533) was 1 and the SPOT intensity (Fus1, P11710) was 0. The SPOT intensity (GST) was 2, the SPOT intensity (Hof1, Q05080) was 6 and the SPOT intensity (Hse1, P38753) was 29. It also gave an SPOT intensity (Lsb1, P53281) of 171, an SPOT intensity (Lsb3, P43603) of 38 and an SPOT intensity (Lsb4, P32793) of 39. For the same binder, the SPOT intensity (Myo3, P36006) was 296, the SPOT intensity (Myo5, Q04439) was 188 and the SPOT intensity (Nbp2, Q12163) was 35. It also gave an SPOT intensity (Pex13, P80667) of 8, an SPOT intensity (Pin3, Q06449) of 11 and an SPOT intensity (Rvs167, P39743) of 45. The SPOT intensity (Sho1, P40073) was 46, the SPOT intensity (Sla1-2, P32790) was 4 and the SPOT intensity (Sla1-3, P32790) was 1790.
